Test results as given in paper PMC4244909.

Target: microtubules (polymers of α/β-tubulin) of the co-sedimentation and negative-stain EM experiments
Experiment: co-sedimentation

Chain of microtubules (polymers of α/β-tubulin) of the co-sedimentation and negative-stain EM experiments (P68363 whole entry, chain 1 of 2): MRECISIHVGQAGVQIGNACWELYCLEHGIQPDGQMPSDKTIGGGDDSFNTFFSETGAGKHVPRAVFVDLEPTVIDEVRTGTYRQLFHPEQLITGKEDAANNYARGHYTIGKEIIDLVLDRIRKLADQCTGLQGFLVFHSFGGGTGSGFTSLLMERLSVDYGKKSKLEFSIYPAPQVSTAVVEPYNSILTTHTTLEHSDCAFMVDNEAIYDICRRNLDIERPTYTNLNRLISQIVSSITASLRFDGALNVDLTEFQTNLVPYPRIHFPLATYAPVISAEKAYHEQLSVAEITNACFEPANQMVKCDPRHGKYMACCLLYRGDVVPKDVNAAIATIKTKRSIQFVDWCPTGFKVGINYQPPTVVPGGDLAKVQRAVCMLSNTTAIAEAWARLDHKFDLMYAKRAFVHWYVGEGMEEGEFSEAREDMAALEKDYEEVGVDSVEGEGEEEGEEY
Chain of microtubules (polymers of α/β-tubulin) of the co-sedimentation and negative-stain EM experiments (A8K068 whole entry, chain 2 of 2, further chain): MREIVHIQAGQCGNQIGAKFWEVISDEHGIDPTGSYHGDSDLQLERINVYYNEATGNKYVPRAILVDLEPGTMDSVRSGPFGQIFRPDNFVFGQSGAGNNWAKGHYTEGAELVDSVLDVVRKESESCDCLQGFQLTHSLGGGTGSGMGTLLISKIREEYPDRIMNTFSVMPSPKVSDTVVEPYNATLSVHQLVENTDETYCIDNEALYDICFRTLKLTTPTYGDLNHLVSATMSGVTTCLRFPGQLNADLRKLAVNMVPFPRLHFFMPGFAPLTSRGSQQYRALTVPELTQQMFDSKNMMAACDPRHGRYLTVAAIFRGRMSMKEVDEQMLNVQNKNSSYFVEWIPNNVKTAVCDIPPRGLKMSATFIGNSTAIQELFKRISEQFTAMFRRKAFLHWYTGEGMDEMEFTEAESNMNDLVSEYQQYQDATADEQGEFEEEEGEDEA

B1: Hice1-MTBR (Hice1 microtubule-binding region, a.a. 1–141), Q9BT25 1-141 (domain or fragment)
chain: MADSSGRGAGKPATGPTNSSSAKKKDKRVQGGRVIESRYLQYEKKTTQKAPAGDGSQTRGKMSEGGRKSSLLQKSKADSSGVGKGDLQSTLLEGHGTAPPDLDLSAINDKSIVKKTPQLAKTISKKPESTSFSAPRKKSPD
  Kd: 9.33 µM
